In the supplement of paper PMC10724198:
± gives the standard deviation of the averaged measurements.

tested on: Saccharomyces cerevisiae; assay: protein stability index of tFT-peptide fusion (C-terminal peptide) (PSI (0-1 scale)); higher = more stable (slower turnover); conditions: genetic background: wild type; temperature: 30 C
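Further: PSI is a weighted mean of sequencing reads over stability bins, variants kept only with over 10 reads, mCherry proximal and sfGFP distal, peptide attached via GGGS linker.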

| Sequence | protein stability index |
| --- | --- |
| LRLCSLSLPSLP | 0.704 ± 0.026 |
| LRLGRDLMGEGV | 0.661 ± 0.072 |
| LRLLLLVLPTCF | 0.527 ± 0.02 |
| LRPILLSWFRKS | 0.61 ± 0.039 |
| LRPLPPPAPCKF | 0.774 ± 0.04 |
| LRPLPSPPPSLH | 0.603 ± 0.0066 |
| LRPRRCWNQWDM | 0.675 ± 0.048 |
| LRQALGRSEEPQ | 0.6728 ± 0.0065 |
| LRRKTIEVSGLA | 0.573 ± 0.026 |
| LRRLSTGTLSIL | 0.724 ± 0.057 |
| LRRMQGTGCPLP | 0.643 ± 0.035 |
| LRSARPALLCTP | 0.678 ± 0.037 |
| LRSGSLVSLPPL | 0.747 ± 0.1 |
| LRTPNIYLSFSP | 0.666 ± 0.1 |
| LRTVSPPSASPP | 0.689 ± 0.014 |
| LRVVCVVGQRSL | 0.554 ± 0.0094 |
| LSDSSDSTLGAI | 0.667 ± 0.029 |
| LSFGPISGTPFR | 0.661 ± 0.048 |
| LSGLFMAARIFI | 0.627 ± 0.06 |
| LSGNLLLSSLLQ | 0.654 ± 0.049 |
| LSGVRFDSVFEH | 0.729 ± 0.016 |
| LSISGSVHILKD | 0.733 ± 0.024 |
| LSLASTGVDSGG | 0.743 ± 0.03 |
| LSLHCIYQQIFR | 0.822 ± 0.12 |
| LSLPSLLLRLSL | 0.644 ± 0.023 |
| LSPCSDFSTFDA | 0.771 ± 0.12 |

| Sequence | protein stability index |
| --- | --- |
| LSPLPRLQPASP | 0.655 ± 0.071 |
| LSPLTPAPLPPP | 0.6675 ± 0.0058 |
| LSPPPPRPTLQF | 0.731 ± 0.0092 |
| LSPSPTSHSRLL | 0.589 ± 0.024 |
| LSPSSSLTYLSF | 0.724 ± 0.07 |
| LSPVRRAPCPLG | 0.6905 ± 0.0019 |
| LSRLPPTLPRTP | 0.699 ± 0.18 |
| LSRPPASPPHPP | 0.71468 ± 0.00055 |
| LSRTPLPLPPPS | 0.705 ± 0.019 |
| LSSLLPFPPLPC | 0.685 ± 0.082 |
| LSSRSDVLTYFV | 0.639 ± 0.022 |
| LSTCHSPSLPAT | 0.739 ± 0.049 |
| LSTHAPPTRLRL | 0.677 ± 0.016 |
| LSTPPLPPPPPP | 0.689 ± 0.058 |
| LSVAFFILRVPL | 0.573 ± 0.071 |
| LSVGLVPFRWRV | 0.6584 ± 0.0017 |
| LSVNAGWLQLCA | 0.561 ± 0.018 |
| LSVPVGIRPGRC | 0.702 ± 0.018 |
| LSWDVWWYFLSV | 0.594 ± 0.0063 |
| LTLPPRPPSPPS | 0.675 ± 0.08 |
| LTSATSSGPPHP | 0.7232 ± 0.0029 |
| LTVVNFFPLGSP | 0.67 ± 0.064 |
| LVDKGSADVLDD | 0.632 ± 0.048 |
| LVFLRDFFSLFS | 0.71 ± 0.017 |
| LVFSSVVISCDI | 0.528 ± 0.0092 |
| LVFVPTLFPPPG | 0.662 ± 0.053 |

| Sequence | protein stability index |
| --- | --- |
| LVFYSSLPNFSR | 0.6815 ± 0.0024 |
| LVGRRGVVGIVP | 0.63 ± 0.075 |
| LVGWVCRERELG | 0.718 ± 0.06 |
| LVHHPCNTPRVP | 0.749 ± 0.018 |
| LVIKNVWHESTY | 0.709 ± 0.054 |
| LVKLGSTLSGVG | 0.582 ± 0.026 |
| LVLFSRCSPFFL | 0.659 ± 0.024 |
| LVLVASVGVGRV | 0.556 ± 0.057 |
| LVSEGKRLDVVF | 0.581 ± 0.076 |
| LVSGRRWMLGSG | 0.6451 ± 0.0023 |
| LVSQLLALCLSV | 0.5358 ± 0.00089 |
| LVVALGFDDRAC | 0.623 ± 0.027 |
| LVVLGVRGGGGG | 0.701 ± 0.047 |
| LWDQFAVSCFGG | 0.745 ± 0.016 |
| LWGAGAGPEDVG | 0.6983 ± 0.0028 |
| LWGAIGHGNAGP | 0.684 ± 0.029 |
| LWGFVEAIGSVL | 0.705 ± 0.18 |
| LWGGGVGRVRGV | 0.658 ± 0.022 |
| LWGMSDQGGGFR | 0.611 ± 0.083 |
| LWLPSTSLIPLI | 0.641 ± 0.018 |
| LWRSRSCSGHSF | 0.651 ± 0.053 |
| LYDAALHTKIFR | 0.634 ± 0.012 |
| LYDCQHTFILSR | 0.643 ± 0.047 |
| LYHCFRCYYMPW | 0.637 ± 0.033 |
| LYIHFIRSYPTI | 0.6354 ± 0.0036 |
| LYIYSPFGLFAF | 0.562 ± 0.0082 |

| Sequence | protein stability index |
| --- | --- |
| LYPRLAPPTPPS | 0.686 ± 0.026 |
| LYTTLCLRSPPH | 0.671 ± 0.026 |
| LYVIGGTDLVGG | 0.72 ± 0.04 |
| MCNPAYVTSGVI | 0.6987 ± 0.0054 |
| MCPRFCPPLRSF | 0.686 ± 0.084 |
| MCWFDVSEWGLG | 0.754 ± 0.091 |
| MFVRRTDRGGIV | 0.7312 ± 0.0069 |
| MGCSARLPLLSS | 0.7215 ± 0.0016 |
| MGDGRRMDGVWG | 0.6 ± 0.03 |
| MGGGGGLGGGDG | 0.613 ± 0.072 |
| MGGYLFLHVGYV | 0.614 ± 0.062 |
| MGIKSCSSTCVT | 0.857 ± 0.2 |
| MGTRRVGRQGWG | 0.708 ± 0.031 |
| MINYGLARKKAR | 0.733 ± 0.02 |
| MKKIGNKLKKEK | 0.657 ± 0.099 |
| MKKKTTKTKIKK | 0.7205 ± 0.0051 |
| MLGGGGGVRVLG | 0.706 ± 0.011 |
| MLYFSGLQVTIL | 0.622 ± 0.0075 |
| MPTSYDGCDRGH | 0.713 ± 0.011 |
| MRCQFDGAVGVC | 0.663 ± 0.074 |
| MRKGKGGGPRRR | 0.699 ± 0.023 |
| MRPRTSKKPQLE | 0.744 ± 0.044 |
| MRRKKSGPEYQR | 0.678 ± 0.059 |
